# According to US20260265316A1, “IMMUNOTHERAPEUTIC METHODS, COMPOUNDS, AND COMPOSITIONS FOR TREATING OR PREVENTING CELIAC DISEASE” (DBV Technologies, priority 2023, published 2026):
# B1: QLQPFPQPELPYPQPELPYPQPELPYPQPQPKKKKPQPEQPEQPFPEQPQKKKKPQQPFPQPEQPFPWQPQKKKKPSGEGSFQPSQENPQ (peptide)
# chain: QLQPFPQPELPYPQPELPYPQPELPYPQPQPKKKKPQPEQPEQPFPEQPQKKKKPQQPFPQPEQPFPWQPQKKKKPSGEGSFQPSQENPQ
# B2: QLQPFPQPELPYPQPELPYPQPELPYPQPQPGPRRKKPQPEQPEQPFPEQPQGARRKKPQQPFPQPEQPFPWQPQGPKKPSGEGSFQPSQENPQ (peptide)
# chain: QLQPFPQPELPYPQPELPYPQPELPYPQPQPGPRRKKPQPEQPEQPFPEQPQGARRKKPQQPFPQPEQPFPWQPQGPKKPSGEGSFQPSQENPQ
# B3: QLQPFPQPELPYPQPELPYPQPELPYPQPQPGPRRKKPQPEQPEQPFPEQPQGCRRKKPQQPFPQPEQPFPWQPQGPKKPSGEGSFQPSQENPQ (peptide)
# chain: QLQPFPQPELPYPQPELPYPQPELPYPQPQPGPRRKKPQPEQPEQPFPEQPQGCRRKKPQQPFPQPEQPFPWQPQGPKKPSGEGSFQPSQENPQ
# Legend:
# [1] = system: circulating gluten-specific CD4+ T cells in whole blood of HLA-DQ2+ CeD patients; test: Whole blood IL-2 cytokine release assay, HLA-DQ2+ CeD participants; type: cell-based, human; settings: 24 hours; for IL-2 response (in words): HLA-DQ2+ donors, whole blood; for mean IL-2 titer: HLA-DQ2+ participants, 10 μM
# Source text: FIGS. 10A-10B are graphs depicting the evaluation of the ability of various molarities of three gliadin polypeptides (Cv6, Av6, and 4K), two peptide mixes containing either the four individual building blocks BB1, BB2a, BB3a and BB4a (BB1-4a) or two Nexvax2 peptides (Nex01/02), and six individual building blocks or peptides (BB1, BB2a, BB3a, BB4a, Nex01, and Nex02) to restimulate gluten-specific T cell collected from HLA-DQ2+ CeD patients using a whole blood IL-2 release assay. The whole blood cytokine release assay was performed in six HLA-DQ2+ participants with biopsy-confirmed celiac disease. Whole blood was stimulated with the three gliadin polypeptide constructs Cv6, Av6, and 4K at 10, 2.5, and 0.5 μM final molarities, as indicated. Alternatively, whole blood was stimulated with a mix of peptides containing either the four building blocks BB1, BB2a, BB3a, and BB4a (BB1-4a) or Nex01 and Nex 02 (Nex01/02) at 10, 2.5, and 0.5 μM final molarities. Building blocks (BB1, BB2a, BB3a, and BB4a), Nex01, and Nex02 were also tested as individual peptides, at a single concentration of 10 μM. After 24 hours of incubation, the concentration of IL-2 was quantified from plasma using an MSD IL-2 S-plex ELISA. Data are expressed in femtogram/mL of plasma (A), or as fold change from the negative control (PBS 1×) (B). Symbols represent individual participants (patient ID); bars represent median+interquartile range of individual values.
# (§1) The overarching objective of this assay was to validate that the polypeptide constructs (Cv6, Av6, and 4K) can be recognized and processed by human APCs, and they can then promote the activation of gluten-specific effector/memory CD4^+ T cells in CeD patients. A Cytokine Release Assay (CRA) was used (previously described in the literature: Anderson et al., Clinical & Experimental Immunology, 2021 June; 204(3): 321-334; and in Hardy et al., Frontiers in Immunology, 2021, Vol. 12, Article 661662, the entire contents of each of which are incorporated by reference herein). This assay quantifies IL-2 produced by circulating gluten-specific CD4^+ T cells present in the blood of CeD patients upon in vitro stimulation with gluten-derived antigens. Due to the extremely high sensitivity of this CRA, no oral exposure to gluten was required prior to blood sampling.
# (§2) Informed consent was obtained from all subjects prior to blood collection.
# (§3) Unfractionated blood (225 μL per well of a 96-well plate) was then rapidly restimulated for 24 hours with each of three of the polypeptide constructs provided herein (SEQ ID NO:23 wherein X is C [Cv6, i.e., SEQ ID NO:49], SEQ ID NO:23 wherein X is A [Av6, i.e., SEQ ID NO:50], and SEQ ID NO:46 [4K]) and with each of four individual building blocks (SEQ ID NO:15 wherein Z is E [BB1], SEQ ID NO:16 wherein Z is E [BB2a], SEQ ID NO:20 wherein Z is E [BB3a], and SEQ ID NO:18 wherein Z is E [BB4a]). The concentrations of the polypeptide constructs ranged from 0.5 to 10 micromolar, and the concentration for each individual building block was 10 micromolar. […] These two peptides comprise an N-terminal pyroglutamate and a C-terminal amide. Nex01 and Nex02 were the two gliadin peptides used in the Nexvax2 immunotherapeutic vaccine that was intended to restore immune tolerance to gluten in HLA-DQ2.5+ CeD patients. A positive control consisted of blood cells stimulated with phytohemagglutinin (PHA) (10 μg/mL) which activates all T cells regardless of their antigen specificity (i.e., a polyclonal activator). Negative controls consisted of cells treated with buffer only (PBS 1×).
# (§4) After incubation for 24 hours at 37° C. and 5% CO2, plasma was separated from whole blood by centrifugation. Plasma was collected from each well and replicates (n=6 replicates per test) pooled. All plasma samples were frozen at −80° C. until analysis. Single plasma aliquots (100 μL) were thawed and analyzed in duplicate using MSD IL-2 S-plex according to the manufacturer's instructions.
# [2] = system: circulating gluten-specific CD4+ T cells in whole blood of HLA-DQ8+ CeD patients; test: Whole blood IL-2 cytokine release assay, HLA-DQ8+ CeD participants; type: cell-based, human; settings: for IL-2 response (in words): HLA-DQ8+ donors, whole blood; for IL-2 response (in words) / mean IL-2 titer: 24 hours; for mean IL-2 titer fold higher than Nex01/02 peptide mix / mean IL-2 titer: HLA-DQ8+ participants, 10 μM
# Source text: FIGS. 11A-11B are graphs depicting the evaluation of the ability of various molarities of three gliadin polypeptides (Cv6, Av6, and 4K), two peptide mixes containing either the four individual building blocks BB1, BB2a, BB3a and BB4a (BB1-4a) or two Nexvax2 peptides (Nex01/02), and six individual building blocks or peptides (BB1, BB2a, BB3a, BB4a, Nex01, and Nex02) to restimulate gluten-specific T cell collected from HLA-DQ8+ CeD patients using a whole blood IL-2 release assay. The whole blood cytokine release assay was performed in four HLA-DQ8+ participants with biopsy-confirmed celiac disease as described in FIG. 10. Data are expressed in femtogram/mL of plasma (A), or as fold change from the negative control (PBS 1×) (B). Symbols represent individual participants (patient ID); bars represent the median+interquartile range of individual values.
# as §1, §2, §3, §4
Molecule,IL-2 response (in words) [1],IL-2 response (in words) [2],mean IL-2 titer [1],mean IL-2 titer fold higher than Nex01/02 peptide mix [2],mean IL-2 titer [2]
H-PSGEGSFQPSQENPQ-NH2 [BB4a],no or low response,potent IL-2 responses,,,
H-PQPEQPEQPFPEQPQ-NH2 [BB2a],no or low response,potent IL-2 responses,,,
B1,,,7199 fg/mL,15 fold,6300 fg/mL
B2,,,6664 fg/mL,9 fold,3695 fg/mL
B3,,,4858 fg/mL,11 fold,4528 fg/mL
